Assay results published in US20200199241A1 (Chugai, published 2020).
Positions count from the first letter of the chain named.

T1: FcγRIIa type R (human, UniProt P12318 36-217)
T1 construct: also called FcγRIIaR; FcγRIIa(R)
T1 chain: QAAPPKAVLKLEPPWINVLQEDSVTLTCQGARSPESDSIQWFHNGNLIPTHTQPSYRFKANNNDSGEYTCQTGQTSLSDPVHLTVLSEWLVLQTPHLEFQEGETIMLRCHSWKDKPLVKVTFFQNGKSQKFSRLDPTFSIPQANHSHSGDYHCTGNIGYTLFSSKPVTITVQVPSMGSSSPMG

T2: FcγRIIa type H (human, UniProt P12318 36-217)
T2 construct: also called FcγRIIaH; FcγRIIa(H)
T2 sequence: T1 chain with R133H

T3: FcγRIIb (human, UniProt P31994 43-217, limits assumed)
T3 construct: also called FcγIIB; CD32
T3 sequence: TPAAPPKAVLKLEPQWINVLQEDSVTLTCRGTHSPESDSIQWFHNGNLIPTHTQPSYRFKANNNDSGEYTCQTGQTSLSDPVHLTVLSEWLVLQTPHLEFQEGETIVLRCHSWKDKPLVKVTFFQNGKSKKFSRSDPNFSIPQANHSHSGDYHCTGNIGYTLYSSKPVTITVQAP

T4: FcγRIIb (human, UniProt P31994 43-217, limits assumed)
T4 construct: also called FcgRIIb; FcγIIB
T4 sequence: T3 sequence

T5: FcγRIIa type H (human, UniProt P12318 36-217)
T5 construct: also called FcγRIIaH; FcγRIIH
T5 sequence: T1 chain with R133H

B1: IL6R-BP209/IL6R-L (antibody, human IgG1)
heavy: QVQLQESGPGLVKPSETLSLTCAVSGHSISHDHAWSWVRQPPGEGLEWIGFISYSGITNYNPSLQGRVTISRDNSKNTLYLQMNSLRAEDTAVYYCARSLARTTAMDYWGEGTLVTVSSASTKGPSVFPLAPSSKSTSGGTAALGCLVKDYFPEPVTVSWNSGALTSGVHTFPAVLQSSGLYSLSSVVTVPSSSLGTQTYICNVNHKPSNTKVDKKVEPKSCDKTHTCPPCPAPELLGDDSVFLFPPKPKDTLMISRTPEVTCVVVDVSDEDGEVKFNWYVDGVEVHNAKTKPREEQYNSTYRVVSVLTVLHQDWLNGKEYKCKVSNAALPRPIEKTISKAKGQPREPQVYTLPPSRDELTKNQVSLTCLVKGFYPSDIAVEWESNGQPENNYKTTPPVLDSDGSFFLYSKLTVDKSRWQQGNVFSCSVMHEALHNHYTQESLSLSP
light: DIQMTQSPSSLSASVGDRVTITCRASQDISSYLNWYQQKPGKAPKLLIYYTSRLHSGVPSRFSGSGSGTDFTFTISSLQPEDIATYYCQQGNTLPYTFGQGTKVEIK
notes: Anti-IL-6R human IgG1 variant; copies: 2 + 2
B2: IL6R-BP208/IL6R-L (antibody, human IgG1)
heavy: B1 heavy with E235D, A328K
light: B1 light
notes: as for B1
B3: IL6R-BP195/IL6R-L (antibody, human IgG1)
heavy: B1 heavy with E235D, L236Y, Y298D, R332K
light: B1 light
notes: as for B1
B4: IL6R-BP189/IL6R-L (antibody, human IgG1)
heavy: B1 heavy with R332K
light: B1 light
notes: as for B1
B5: IL6R-BP197/IL6R-L (antibody, human IgG1)
heavy: B1 heavy with E235D, L236Y, Y298D, A328D, R332K
light: B1 light
notes: as for B1
B6: IL6R-BP213/IL6R-L (antibody, human IgG1)
heavy: B1 heavy with E235D, D239G, A328K
light: B1 light
notes: as for B1
B7: IL6R-BP206/IL6R-L (antibody, human IgG1)
heavy: B1 heavy with E235D, D239G, D270H, A328K
light: B1 light
notes: as for B1
B8: IL6R-BP188/IL6R-L (antibody, human IgG1)
heavy: B1 heavy with E235D, A328K, R332K
light: B1 light
notes: as for B1
B9: IL6R-BP211/IL6R-L (antibody, human IgG1)
heavy: B1 heavy with E235D, D239G
light: B1 light
notes: as for B1
B10: IL6R-BP194/IL6R-L (antibody, human IgG1)
heavy: B1 heavy with E235D, L236Y, R332K
light: B1 light
notes: as for B1
B11: IL6R-BP190/IL6R-L (antibody, human IgG1)
heavy: B1 heavy with A328K, R332K
light: B1 light
notes: as for B1
B12: IL6R-BP203/IL6R-L (antibody, human IgG1)
heavy: B1 heavy with D270H, A328K
light: B1 light
notes: as for B1
B13: IL6R-BP196/IL6R-L (antibody, human IgG1)
heavy: B1 heavy with L236Y, D239G, R332K
light: B1 light
notes: as for B1
B14: IL6R-2B128/IL6R-L (antibody, human IgG1)
heavy: B1 heavy with D239G, D270H, G273P, Y298D, A328K, R332A
light: B1 light
notes: IgG1; Fc variant of IL6R-B3; copies: 2 + 2
B15: IL6R-BP121/IL6R-L (antibody, human IgG1)
heavy: B1 heavy with D239G, D270H, G273P, A328Q, R332A
light: B1 light
notes: as for B14
B16: IL6R-2B169/IL6R-L (antibody, human IgG1)
heavy: B1 heavy with D239G, D270H, G273P, V325I, A328K, R332A
light: B1 light
notes: as for B14
B17: IL6R-BP110/IL6R-L (antibody, human IgG1)
heavy: B1 heavy with D239G, D270N, G273P, A328K, R332A
light: B1 light
notes: as for B14

Target: T1, FcγRIIa type R
Assay: SPR (Biacore), method of Example 14

Row | Kd [nM] | Binder
1 | 1200 | B1
2 | 850 | B2
3 | 910 | B3
4 | 1400 | B4
5 | 980 | B5
6 | 3100 | B6
7 | 3100 | B7
8 | 1000 | B8
9 | 4100 | B9
10 | 820 | B10
11 | 1100 | B11
12 | 990 | B12
13 | 3000 | B13

Target: T6, FcγRIa (human, UniProt P12314 16-292, limits assumed)
T6 construct: also called CD64
Assay: SPR (Biacore), method of Example 14
T6 sequence (P12314 16-292 limits assumed): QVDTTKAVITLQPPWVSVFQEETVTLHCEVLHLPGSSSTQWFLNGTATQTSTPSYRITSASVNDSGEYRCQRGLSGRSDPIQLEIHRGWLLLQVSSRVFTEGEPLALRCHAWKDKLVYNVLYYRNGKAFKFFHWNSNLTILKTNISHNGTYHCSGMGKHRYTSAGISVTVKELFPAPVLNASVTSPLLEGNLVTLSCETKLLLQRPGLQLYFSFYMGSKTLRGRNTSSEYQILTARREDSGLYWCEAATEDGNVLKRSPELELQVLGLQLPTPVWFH

Row | Kd [nM] | Binder
14 | 39 | B1
15 | 19 | B2
16 | 23 | B3
17 | 42 | B4
18 | 19 | B5
19 | 4.1 | B6
20 | 8.2 | B7
21 | 21 | B8
22 | 4.2 | B9
23 | 24 | B10
24 | 63 | B11
25 | 180 | B12
26 | 14 | B13

Target: T2, FcγRIIa type H
Assay: SPR (Biacore), method of Example 14

Row | Kd [nM] | Binder
27 | 10000 | B1
28 | 83000 | B2
29 | 10000 | B3
30 | 21000 | B4
31 | 12000 | B5
32 | 24000 | B6
33 | 24000 | B7
34 | 16000 | B8
35 | 27000 | B9
36 | 8500 | B10
37 | 17000 | B11
38 | 11000 | B12
39 | 19000 | B13

Target: T3, FcγRIIb
Assay: SPR (Biacore), method of Example 14

Row | Kd [nM] | Binder
40 | 51 | B1
41 | 32 | B2
42 | 50 | B3
43 | 74 | B4
44 | 58 | B5
45 | 180 | B6
46 | 200 | B7
47 | 46 | B8
48 | 220 | B9
49 | 52 | B10
50 | 58 | B11
51 | 49 | B12
52 | 220 | B13

Target: T7, FcγRIIIa type V (human, UniProt P08637 17-208, limits assumed)
T7 construct: also called FcγRIIIaV; FcγRIIIa(V)
Assay: SPR (Biacore), method of Example 14
T7 sequence (P08637 17-208 F176V limits assumed): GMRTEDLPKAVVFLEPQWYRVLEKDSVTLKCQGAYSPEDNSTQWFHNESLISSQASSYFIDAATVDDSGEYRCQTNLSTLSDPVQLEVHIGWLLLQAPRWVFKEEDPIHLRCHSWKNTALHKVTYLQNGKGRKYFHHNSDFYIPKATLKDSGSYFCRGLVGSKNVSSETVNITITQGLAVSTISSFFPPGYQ

Row | Kd [nM] | Binder
53 | 41000 | B1
54 | 53000 | B2
55 | 31000 | B3
56 | 49000 | B4
57 | 33000 | B5
58 | 63000 | B6
59 | 69000 | B7
60 | 58000 | B8
61 | 73000 | B9
62 | 27000 | B10
63 | 45000 | B11
64 | 72000 | B12
65 | 51000 | B13

Target: T3, FcγRIIb
Assay: SPR (Biacore); KD for FcγRIIaR divided by KD for FcγRIIb of the same antibody; column head in Table 52-1
From the text: (§1) Furthermore, KD(IIaR)/KD(IIb) and KD(IIaH)/KD(IIb) in the table respectively represent the value obtained by dividing the KD value of each variant for FcγRIIaR by the KD value of each variant for FcγRIIb, and the value obtained by dividing the KD value of each variant for FcγRIIaH by the KD value of each variant for FcγRIIb. KD(IIb) of the parent polypeptide/KD(IIb) of the altered polypeptide refers to the value obtained by dividing the KD value of the parent polypeptide for FcγRIIb by the KD value of each variant for FcγRIIb.

Row | KD(IIaR)/KD(IIb) | Binder
66 | 22.7 | B1
67 | 26.3 | B2
68 | 18.2 | B3
69 | 18.5 | B4
70 | 17.1 | B5
71 | 17.7 | B6
72 | 16.1 | B7
73 | 21.9 | B8
74 | 18.5 | B9
75 | 15.8 | B10
76 | 12.3 | B11
77 | 20.5 | B12
78 | 13.4 | B13

Target: T4, FcγRIIb
Assay: SPR (Biacore), KD of IL6R-B3/IL6R-L divided by KD of the variant
From the text: as §1

Row | KD(IIb) of the parent polypeptide/KD(IIb) of altered polypeptide [fold] | Binder
79 | 2.1 | B14
80 | 2.8 | B15
81 | 2.6 | B16
82 | 2.1 | B17

Target: T3, FcγRIIb
Assay: ratio of SPR KD values, parent IL6R-B3/IL6R-L

Row | KD(IIb) of the parent polypeptide/KD(IIb) of altered polypeptide [fold] | Binder
83 | 60.4 | B1
84 | 95.4 | B2
85 | 62 | B3
86 | 41.8 | B4
87 | 53.7 | B5
88 | 17.6 | B6
89 | 15.8 | B7
90 | 67.6 | B8
91 | 13.8 | B9
92 | 59.4 | B10
93 | 53.2 | B11
94 | 63.7 | B12
95 | 13.9 | B13

Target: T3, FcγRIIb
Assay: SPR (Biacore); KD for FcγRIIaH divided by KD for FcγRIIb of the same antibody; column head in Table 52-1
From the text: as §1

Row | KD(IIaH)/KD(IIb) | Binder
96 | 195 | B1
97 | 256 | B2
98 | 201 | B3
99 | 284 | B4
100 | 209 | B5
101 | 136 | B6
102 | 123 | B7
103 | 350 | B8
104 | 120 | B9
105 | 164 | B10
106 | 293 | B11
107 | 227 | B12
108 | 85.2 | B13

Target: T5, FcγRIIa type H
Assay: SPR (Biacore), FcγR over captured antibody

Row | Kd [nM] | Binder
109 | 34000 | B14
110 | 44000 | B15
111 | 48000 | B16
112 | 47000 | B17

Target: T4, FcγRIIb
Assay: SPR (Biacore), FcγR over captured antibody

Row | Kd [nM] | Binder
113 | 1400 | B14
114 | 1100 | B15
115 | 1200 | B16
116 | 1500 | B17

Target: T8, FcγRIa (human, UniProt P12314 16-292, limits assumed)
T8 construct: also called FcgRIa; CD64
Assay: SPR (Biacore), FcγR over captured antibody
T8 sequence (P12314 16-292 limits assumed): as the sequence (P12314 16-292 limits assumed) above

Row | Kd [nM] | Binder
117 | 13 | B14
118 | 11 | B15
119 | 25 | B16
120 | 7.3 | B17

Target: T9, FcγRIIIa type V (human, UniProt P08637 17-208, limits assumed)
T9 construct: also called FcγRIIIaV; FcgRIIIaV
Assay: SPR (Biacore), FcγR over captured antibody
T9 sequence (P08637 other isoform, or with tags, fused parts or gaps limits assumed): as the sequence (P08637 17-208 F176V limits assumed) above, with A179S counted along it

Row | Kd [nM] | Binder
121 | 72000 | B14
122 | 52000 | B15
123 | 75000 | B16
124 | 64000 | B17
